One molecule from PMC6642083, “Structural basis of tubulin detyrosination by VASH2/SVBP heterodimer” (Nature Communications, 2019) can be followed below.

For the assay, the target named is T1, VASH2_(1–355)(C158A)/SVBP_(1–66) (Mus musculus, UniProt Q8C5G2 1-355; Q99LQ4 1-66, C158A).
T1 construct: SVBP, Mus musculus, residues 1-66; also called VASH2(C158A)/SVBP; source: Sf9, co-expressed (baculovirus), purified (Ni-NTA, heparin, SEC); not shown: His-tag, N-terminal, cleaved
The assay can be described thus: crystal structure; tail peptide (1 mM) co-crystallized with VASH2 1–355(C158A)/SVBP 1–66 (5 mg/ml), 2.5 Å; 0.1 M HEPES pH 7.0, 1 M (NH4)2SO4, 1.105 M KCl, 18 °C. Conditions: both partners purified.

T1 sequence (Q8C5G2 whole entry C158A, chain 1 of 2, the tested form may be a part): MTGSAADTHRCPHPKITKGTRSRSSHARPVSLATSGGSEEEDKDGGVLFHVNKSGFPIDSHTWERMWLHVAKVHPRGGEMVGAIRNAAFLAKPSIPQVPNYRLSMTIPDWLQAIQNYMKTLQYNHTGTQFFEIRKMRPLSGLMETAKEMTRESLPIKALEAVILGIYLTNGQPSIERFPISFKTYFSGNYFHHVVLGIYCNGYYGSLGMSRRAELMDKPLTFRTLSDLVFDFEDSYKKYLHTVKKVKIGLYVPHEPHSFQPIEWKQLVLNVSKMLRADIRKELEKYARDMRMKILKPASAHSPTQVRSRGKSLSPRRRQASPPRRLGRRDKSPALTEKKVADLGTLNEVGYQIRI
T1 sequence (Q99LQ4 whole entry, chain 2 of 2, the tested form may be a part): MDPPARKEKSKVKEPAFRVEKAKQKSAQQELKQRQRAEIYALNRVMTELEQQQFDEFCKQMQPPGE

B1: α-tubulin C-terminal tail peptide (VDSVEGEGEEEGEEY) (peptide)
peptide: VDSVEGEGEEEGEEY
notes: C-terminal tail of α-tubulin; Only the last five residues (EGEEY) were built in the crystal structure; also called tubulin tail; full-length tail; source: synthetic peptide (Biosynthesis)
Turning to B1, the binding result is on record as “binds”.
